Test results: the supplement of paper PMC10567573

B1: KCNA3 (parent)
chain: YQSGGRIRRPVNVPIDIFSEEIRF

Variants of: B1
Assay: protein stability index of a GFP-peptide fusion (GPS, HEK-293T) (PSI 1-6); higher = more stable
Conditions: c terminus: a fixed tail appended
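Also: lentivirally expressed fusions sorted by FACS into six bins by GFP to DsRed ratio, PSI derived from sequencing read proportions per bin multiplied by bin number.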

Row | Variant | protein stability index
1 | YQSGARIRRPVNVPIDIFSEEIRF | 2.38
2 | YQSGCRIRRPVNVPIDIFSEEIRF | 1.91
3 | YQSGDRIRRPVNVPIDIFSEEIRF | 2.02
4 | YQSGERIRRPVNVPIDIFSEEIRF | 2.58
5 | YQSGFRIRRPVNVPIDIFSEEIRF | 1.68
6 | YQSGHRIRRPVNVPIDIFSEEIRF | 2.9
7 | YQSGIRIRRPVNVPIDIFSEEIRF | 1.94
8 | YQSGKRIRRPVNVPIDIFSEEIRF | 2.2
9 | YQSGLRIRRPVNVPIDIFSEEIRF | 2.09
10 | YQSGMRIRRPVNVPIDIFSEEIRF | 1.37
11 | YQSGNRIRRPVNVPIDIFSEEIRF | 2
12 | YQSGPRIRRPVNVPIDIFSEEIRF | 2.32
13 | YQSGQRIRRPVNVPIDIFSEEIRF | 2.5
14 | YQSGRRIRRPVNVPIDIFSEEIRF | 2.08
15 | YQSGSRIRRPVNVPIDIFSEEIRF | 2.37
16 | YQSGTRIRRPVNVPIDIFSEEIRF | 2.54
17 | YQSGVRIRRPVNVPIDIFSEEIRF | 2.05
18 | YQSGWRIRRPVNVPIDIFSEEIRF | 3.41
19 | YQSGYRIRRPVNVPIDIFSEEIRF | 1.49
20 | YQSGGAIRRPVNVPIDIFSEEIRF | 1.9
21 | YQSGGCIRRPVNVPIDIFSEEIRF | 1.85
22 | YQSGGDIRRPVNVPIDIFSEEIRF | 2.15
23 | YQSGGEIRRPVNVPIDIFSEEIRF | 2.34
24 | YQSGGFIRRPVNVPIDIFSEEIRF | 1.65

Row | Variant | protein stability index
25 | YQSGGGIRRPVNVPIDIFSEEIRF | 1.85
26 | YQSGGHIRRPVNVPIDIFSEEIRF | 2.23
27 | YQSGGIIRRPVNVPIDIFSEEIRF | 1.9
28 | YQSGGKIRRPVNVPIDIFSEEIRF | 1.59
29 | YQSGGLIRRPVNVPIDIFSEEIRF | 1.31
30 | YQSGGNIRRPVNVPIDIFSEEIRF | 2.11
31 | YQSGGPIRRPVNVPIDIFSEEIRF | 1.91
32 | YQSGGQIRRPVNVPIDIFSEEIRF | 2.79
33 | YQSGGSIRRPVNVPIDIFSEEIRF | 2.08
34 | YQSGGTIRRPVNVPIDIFSEEIRF | 1.76
35 | YQSGGVIRRPVNVPIDIFSEEIRF | 1.95
36 | YQSGGWIRRPVNVPIDIFSEEIRF | 1.86
37 | YQSGGYIRRPVNVPIDIFSEEIRF | 1.86
38 | YQSGGRARRPVNVPIDIFSEEIRF | 2.83
39 | YQSGGRCRRPVNVPIDIFSEEIRF | 2.38
40 | YQSGGRDRRPVNVPIDIFSEEIRF | 2.92
41 | YQSGGRERRPVNVPIDIFSEEIRF | 2.17
42 | YQSGGRFRRPVNVPIDIFSEEIRF | 1.62
43 | YQSGGRGRRPVNVPIDIFSEEIRF | 2.41
44 | YQSGGRHRRPVNVPIDIFSEEIRF | 1.57
45 | YQSGGRKRRPVNVPIDIFSEEIRF | 3.34
46 | YQSGGRLRRPVNVPIDIFSEEIRF | 1.69
47 | YQSGGRMRRPVNVPIDIFSEEIRF | 2.44
48 | YQSGGRNRRPVNVPIDIFSEEIRF | 1.73

Row | Variant | protein stability index
49 | YQSGGRPRRPVNVPIDIFSEEIRF | 2.51
50 | YQSGGRQRRPVNVPIDIFSEEIRF | 2.52
51 | YQSGGRRRRPVNVPIDIFSEEIRF | 1.86
52 | YQSGGRSRRPVNVPIDIFSEEIRF | 2.38
53 | YQSGGRTRRPVNVPIDIFSEEIRF | 1.91
54 | YQSGGRVRRPVNVPIDIFSEEIRF | 2.4
55 | YQSGGRWRRPVNVPIDIFSEEIRF | 2.77
56 | YQSGGRYRRPVNVPIDIFSEEIRF | 2.04
57 | YQSGGRIARPVNVPIDIFSEEIRF | 2.57
58 | YQSGGRICRPVNVPIDIFSEEIRF | 2.03
59 | YQSGGRIDRPVNVPIDIFSEEIRF | 2.13
60 | YQSGGRIERPVNVPIDIFSEEIRF | 2.3
61 | YQSGGRIFRPVNVPIDIFSEEIRF | 2.03
62 | YQSGGRIHRPVNVPIDIFSEEIRF | 4.19
63 | YQSGGRIIRPVNVPIDIFSEEIRF | 3.3
64 | YQSGGRIKRPVNVPIDIFSEEIRF | 2.47
65 | YQSGGRILRPVNVPIDIFSEEIRF | 1.26
66 | YQSGGRIMRPVNVPIDIFSEEIRF | 2.03
67 | YQSGGRINRPVNVPIDIFSEEIRF | 2.2
68 | YQSGGRIPRPVNVPIDIFSEEIRF | 2.02
69 | YQSGGRIQRPVNVPIDIFSEEIRF | 1.67
70 | YQSGGRISRPVNVPIDIFSEEIRF | 1.44
71 | YQSGGRITRPVNVPIDIFSEEIRF | 2.07
72 | YQSGGRIVRPVNVPIDIFSEEIRF | 1.77

Row | Variant | protein stability index
73 | YQSGGRIYRPVNVPIDIFSEEIRF | 3.3
74 | YQSGGRIRAPVNVPIDIFSEEIRF | 2.45
75 | YQSGGRIRCPVNVPIDIFSEEIRF | 2.35
76 | YQSGGRIRDPVNVPIDIFSEEIRF | 1.62
77 | YQSGGRIREPVNVPIDIFSEEIRF | 2.26
78 | YQSGGRIRFPVNVPIDIFSEEIRF | 1.81
79 | YQSGGRIRGPVNVPIDIFSEEIRF | 2.23
80 | YQSGGRIRHPVNVPIDIFSEEIRF | 3.44
81 | YQSGGRIRIPVNVPIDIFSEEIRF | 2.27
82 | YQSGGRIRKPVNVPIDIFSEEIRF | 1.78
83 | YQSGGRIRLPVNVPIDIFSEEIRF | 2.05
84 | YQSGGRIRMPVNVPIDIFSEEIRF | 1.61
85 | YQSGGRIRNPVNVPIDIFSEEIRF | 2.12
86 | YQSGGRIRPPVNVPIDIFSEEIRF | 2.26
87 | YQSGGRIRQPVNVPIDIFSEEIRF | 1.87
88 | YQSGGRIRSPVNVPIDIFSEEIRF | 2.06
89 | YQSGGRIRTPVNVPIDIFSEEIRF | 2.48
90 | YQSGGRIRVPVNVPIDIFSEEIRF | 1.41
91 | YQSGGRIRYPVNVPIDIFSEEIRF | 1.72
92 | YQSGGRIRRAVNVPIDIFSEEIRF | 2.31
93 | YQSGGRIRRCVNVPIDIFSEEIRF | 2.03
94 | YQSGGRIRRDVNVPIDIFSEEIRF | 1.87
